Data on one molecule can be found in patent US7829303 (ELAN PHARMACEUTICALS, dated 2010).

The target in the assay is T1, recombinant human beta secretase (BACE), E. coli construct pQE70-BACE (human, UniProt P56817 57-453).
T1 construct: also called Asp2; memapsin 2
Put plainly: affinity chromatography, peptide immobilised on resin. As to the method: Prior to purification, the pH of the refolded protein was lowered from about 10 to 8.5 with HCl. The solution was loaded onto three 50 ml Q-Sepharose columns (Pharmacia Biotech XK 50). The columns were pre-equilibrated in 0.4 M Urea, 10 mM AMPSO, pH 8.5. After refolded protein was loaded onto the columns, they were washed with 500 ml of 0.4 M Urea, 10 mM TRIS, pH 8.2. The columns were eluted with 180-245 ml of 0.75 M NaCl in 0.4 M Urea 10 mM TRIS buffer, pH 8.2. The eluates were then dialyzed versus 20 mM HEPES, pH 8.0. The samples were then removed from dialysis and dropped into 1 M NaMES, pH 5.7 (0.1 M final concentration). After centrifugation (20 K×g) the supernatant was dropped into 1 M Na-acetate, 1 M NaMES, pH 5.0 (0.2 M Na-acetate, 0.28 M Na-MES was the final concentration). […] This solution was then applied to a 15 ml affinity column equilibrated at the same pH. The column was washed with 6 column volumes of 20 mM sodium acetate buffer pH 4.5, 150 mM NaCl. BACE was eluted at pH 8.5 using about 50 ml of 0.1 M borate buffer. This final step removed any residual contaminants. From 40 liter of *E. coli* cell culture, the amount of protein obtained was 137 mg of highly purified pQE70-BACE construct. Purified pQE70-BACE was dialyzed into 100 mM NaBorate pH 8.5.

Where no end group is shown, it is not given here. [ ]: non-standard residue; d: D form. Sta = CC(C)C[C@H](N)[C@@H](O)CC(=O)O

T1 sequence (P56817 other isoform, or with tags, fused parts or gaps limits assumed): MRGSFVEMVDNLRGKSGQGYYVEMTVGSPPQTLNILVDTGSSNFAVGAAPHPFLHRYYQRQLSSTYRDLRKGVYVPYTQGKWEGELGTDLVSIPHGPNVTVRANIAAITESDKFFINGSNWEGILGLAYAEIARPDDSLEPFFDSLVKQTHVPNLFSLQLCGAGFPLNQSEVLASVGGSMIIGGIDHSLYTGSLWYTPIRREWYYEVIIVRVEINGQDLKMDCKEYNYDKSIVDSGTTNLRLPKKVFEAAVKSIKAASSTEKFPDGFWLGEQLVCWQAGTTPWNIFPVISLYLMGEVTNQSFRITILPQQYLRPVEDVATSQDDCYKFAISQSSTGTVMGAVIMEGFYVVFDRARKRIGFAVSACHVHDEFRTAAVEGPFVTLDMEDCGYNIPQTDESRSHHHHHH

Regarding SEVN[Sta]VAEFRGGC [synthetic peptide Ser-Glu-Val-Asn-Sta-Val-Ala-Glu-Phe-Arg-Gly-Gly-Cys (where Sta=statine)], the binding result is “binds”.
